Assay results taken from patent publication US20260191943A1, “Methods for Preparing Conjugated Capsular Saccharide Antigens and Uses Thereof” (PFIZER INC., priority 2022, published 2026).
Square brackets hold non-standard residues; d marks the D form. Ends that are not written are not given here. Pra = C#CC[C@H](N)C(=O)O

Test: PADRE peptide solubility / staying in solution
Type: physicochemical
Description: It is possible that the PADRE constructs disclosed herein may have solubility limitations in aqueous solutions (<5 mg/ml max concentration) versus DMSO solutions (<10 mg/ml max concentration), so conditions for PADRE solubility were adjusted to achieve optimum click conjugation efficiency. Ionic gelling may have occurred during the CDAP or DMTMM direct incorporation of PADRE 2, as buffer matrix with high ionic strength in higher concentrated Pn3 solutions promotes gelling. Aggregation with an alkynated CRM197 batch fed approach was also observed in click conjugation reactions. To avoid potential solubility issues, the following conditions with PADRE 3 were proposed: 1. Lower the ionic strength of the reaction matrix and diafiltration matrix to 10 mM phosphate pH 7.0, 2. Slow dose addition of alkynated PADRE 3 into the reaction, and 3. make stock solution of alkynated PADRE 3 in water instead of DMSO to eliminate the need for a lyophilization step.
A reaction was run omitting DMSO from a click conjugate protocol for alkynated trimeric gp120 Epitope mimic peptides using 5 mM Sodium ascorbate, 5 mM aminoguanidine, 0.1 mM CuSO4, and 0.5 mM THPTA ligand in 10 mM phosphate buffer at pH 7.4 containing 5% DMSO for 18 hr [Schellinger et al. (2011) J Am Chem Soc 133(10):3230-3233]. […]

**Q.** With “{d-ALA}KVAAWTLKAA{d-ALA}{Pra} ([dA]KVAAWTLKAA[dA][Pra]) [PADRE 3]” as the substance, how does the peptide solution solubility (37° C. in the incubator at 200 rpm agitation, DMSO omitted) read?
**A.** The peptide solution solubility was “stayed soluble”.

**Q.** And the “stock solution staying in solution” value (alkynated PADRE 3 stock in water, after 18 hr at room temperature)?
**A.** Its value is “did not come out of solution”.
